Assay [1] deals with IL3RA-PK (CD123 tagged with ProLink) in HEK293 IL3RA-PK/CSF2RB-EA cells (UniProt P26951 19-378). The assay is described as follows: cell-based or functional assay.
The target of assay [2] is T1, cyno CD123 ECD displayed on pDisplay-transfected cells (cynomolgus monkey).
T1 construct: ECD anchored on the surface of stably transfected HEK293 cells; also called cynoCD123 SP1 cells; cynoCD123 cells
T1 chain: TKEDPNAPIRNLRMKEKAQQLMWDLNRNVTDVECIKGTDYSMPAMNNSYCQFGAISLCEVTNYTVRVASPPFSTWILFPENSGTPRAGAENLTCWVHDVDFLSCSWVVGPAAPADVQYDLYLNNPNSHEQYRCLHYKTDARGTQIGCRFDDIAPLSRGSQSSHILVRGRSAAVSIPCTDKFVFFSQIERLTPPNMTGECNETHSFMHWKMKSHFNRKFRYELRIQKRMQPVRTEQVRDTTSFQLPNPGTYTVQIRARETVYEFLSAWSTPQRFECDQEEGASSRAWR
In words: MSD-CAT on pDisplay cells. As to the method: (§1) After equilibration the plate was centrifuged for 5 min ˜1000 rpm and free anti-CD3 detected on the supernatant. […] The assay buffer was removed without washing and 50 μL/well of 0.7 μg/mL of biotinylated antigen in assay buffer were added to MSD plates and incubated overnight (˜16 hr at 4° C.). After overnight incubation, the plates were blocked by adding 150 μL/well of assay buffer without removing coating antigen, incubated for ˜1 hr at ambient temperature and washed 5 times with wash buffer (assay buffer without BSA). 50 μL/well of the supernantants from samples plate were transferred to antigen-coated plates, incubated for 60 min, and then washed three times with wash Buffer. After this 50 μL per well of ruthenium labeled detection antibody(anti-human H+L) were added and incubated for 1 hr. After 1 hr the plates were washed and 150 μL of MSD Read Buffer (prepared by diluting 1:4 of stock into d. H₂O) were added per well. The plates were read immediately on the MSD Sector Imager 6000 Reader for luminescence levels. ECL signal detected by MSD was expressed in term of % free antibody in the mixture and the data was analyzed to determine affinity using a user defined equation (derived from the law of mass action) introduced in Prism software.

Assay [3] concerns the target T2, Recombinant human CD123 SP1 ECD-His tag protein (human, UniProt P26951 20-305).
T2 construct: bought from R&D Systems (#301-R3/CF); biotinylated for some assays; also called rhCD123 SP1; huCD123 ECD SP1
T2 sequence: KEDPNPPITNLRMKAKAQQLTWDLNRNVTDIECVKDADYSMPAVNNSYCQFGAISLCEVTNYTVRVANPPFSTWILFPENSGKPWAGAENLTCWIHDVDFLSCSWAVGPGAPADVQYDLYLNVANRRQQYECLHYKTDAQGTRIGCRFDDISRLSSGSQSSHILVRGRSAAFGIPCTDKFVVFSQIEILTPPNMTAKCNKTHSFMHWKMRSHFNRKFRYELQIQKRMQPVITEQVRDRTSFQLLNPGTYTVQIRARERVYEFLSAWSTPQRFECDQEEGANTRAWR
In words: SPR Biacore 3000, captured Fab. How it is done: (§2) Kinetic studies were performed at 25° C. using a Biacore 3000 (BIAcore, Inc., now part of GE Healthcare). […] Sheep anti-Human Fd specific antibody (The binding site Prod # PC075) was covalently attached to two flow cells (normally 3 and 4) of the carboxymethyl dextran coated gold surfaces (CM-5 Chip, Biacore). The carboxymethyl groups of dextran were activated with N-Ethyl-N′-(3-Dimethylaminopropyl)carbodiimide (EDC) and N-hydroxysuccinimide (NHS). The antibodies were coupled at pH 4.5 in 10 mM sodium acetate. Any remaining reactive sites on the surface were blocked by reaction with ethanolamine. […] Association data was collected for 2 min followed by 10 min of dissociation. The surface was regenerated with 30 μL of 100 mM H3PO4 100 μL/min. All samples were prepared in D-PBS containing 3 mM EDTA and 0.005% surfactant P20. Data reported is the difference in SPR signal between the flow cell containing the captured antibody or Fab and a reference cell without captured antibody or Fab. Additional instrumental contributions to the signal were removed by subtraction of the data from the blank injection from the reference-subtracted signal. Data were performed in triplicate and analyzed by fitting association and dissociation phases at all concentrations (global fit) with a 1:1 binding model using the BIAevaluation software (BIAcore, Inc.). […] Data presented is an average.

The target of assay [4] is T3, Recombinant human CD123 SP2 ECD protein (human, UniProt P26951 101-303).
T3 construct: also called rhCD123 SP2; CD123 ECD SP2
T3 sequence: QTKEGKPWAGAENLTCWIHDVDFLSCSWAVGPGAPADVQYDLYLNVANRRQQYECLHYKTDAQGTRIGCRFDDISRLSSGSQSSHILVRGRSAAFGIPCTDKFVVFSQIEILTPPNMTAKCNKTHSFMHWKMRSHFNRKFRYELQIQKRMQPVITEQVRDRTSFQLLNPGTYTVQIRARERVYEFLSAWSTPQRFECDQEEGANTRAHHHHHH
The assay is described as follows: SPR Biacore 3000, captured Fab. How it is done: as §2

The target in assay [5] is T4, human CD123 SP1 ECD displayed on pDisplay-transfected cells (human, UniProt P26951 20-305).
T4 construct: ECD anchored on the surface of stably transfected HEK293 cells by the PDGFR transmembrane domain; also called hCD123 SP1 cells; hCD123 cells
T4 sequence: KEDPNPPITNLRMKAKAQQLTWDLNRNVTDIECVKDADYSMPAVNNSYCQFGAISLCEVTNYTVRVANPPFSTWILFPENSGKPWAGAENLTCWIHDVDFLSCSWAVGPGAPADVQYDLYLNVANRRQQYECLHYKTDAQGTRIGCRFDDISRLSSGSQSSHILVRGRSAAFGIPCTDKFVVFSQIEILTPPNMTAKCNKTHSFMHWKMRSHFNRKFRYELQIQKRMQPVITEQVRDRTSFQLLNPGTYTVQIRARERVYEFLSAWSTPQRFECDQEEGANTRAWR
In words: MSD-CAT, hCD123 cells, assay-1. How it is done:
as §1

Assay [6] addresses T4, human CD123 SP1 ECD displayed on …. The assay is described as follows: MSD-CAT, hCD123 cells, assay-2. As to the method: as §1
For assay [7], the target named is T1, cyno CD123 ECD displayed on …. In words: MSD-CAT, cynoCD123 cells, assay-1. As to the method:
(§3) The MSD-CAT was developed in-house as a label-free method to determine affinity using intact cells in a high throughput format. […] Cell lines used were human pDisplay CD and cyno pDisplay CD123SP1. […] These samples were prepared in DMEM Glutamax medium containing 0.05% Azide, 1% BSA, 3 mM EDTA. The receptor numbers of (3.15-4.18)×10⁶ hCD123/cell and (4.78-9.24) 10⁶ cyCD123/cell were converted to M receptor concentration in the mixture on the basis of the volume of reaction, the cell density (cells/L) and the Avogadro's number. […] After equilibration the plate was centrifuged for 5 min ˜1000 rpm and free anti-CD3 detected on the supernatant.

Assay [8] shares this target. The assay is described as follows: MSD-CAT, cynoCD123 cells, assay-2. As to the method: as §3
Assay [9] addresses T3, Recombinant human CD123 SP2 ECD protein. In words: SPR Biacore 3000, captured Fab; footnote: assay response is lower than expected. As to the method: as §2
Assay [10] addresses T2, Recombinant human CD123 SP1 ECD-His tag …. The assay is described as follows: SPR ProteOn, captured mAb.
Assay [11] addresses T1, cyno CD123 ECD displayed on …. In words: MSD cell binding assay, signal 3x over background. As to the method: The object of the screening assay was to identify antibodies that bound to cells expressing hCD123 SP1 and SP2 as well as cross reactivity with cells expressing cynoCD123 SP1.
Cells were immobilized and phages were assayed in triplicate. […] 5000 cells per well were plated into a 384 well plate (MA6000, cat. L21XB, MSD) and allowed to adhere for 2 hr. Cells were then blocked with 20% FBS in PBS (Gibco) for 15 mins. Antibody supernatants were then added and left at RT for 1 hr. Cells were washed 3 times with PBS and a ruthenium labeled secondary antibody (Jackson Immuno Research) was then added at 1 μg/mL and incubated for 1 hr at room temperature. A further washing step was then applied and 35 μL per well of MSD Read buffer T (surfactant free) was then added and incubated for 30 min for detection. Plates were then read using Sector Imager 2400 (MSD). Data was normalized to controls and graphed using GraphPad Prism Version 5. A positive binder was determined to be a hit with a signal 3× greater than background (FIGS. 2A, B and C).

The target of assay [12] is T4, human CD123 SP1 ECD displayed on …. In words: MSD cell binding on 293F pDisplay cells; fold change over background; parental 293F cells as control.
In assay [13] the target is T5, human CD123 SP2 ECD displayed on pDisplay-transfected cells (human, UniProt P26951 101-305).
T5 construct: ECD anchored on the surface of stably transfected HEK293 cells; also called hCD123 SP2 cells; pDisplay CD123SP2
T5 sequence: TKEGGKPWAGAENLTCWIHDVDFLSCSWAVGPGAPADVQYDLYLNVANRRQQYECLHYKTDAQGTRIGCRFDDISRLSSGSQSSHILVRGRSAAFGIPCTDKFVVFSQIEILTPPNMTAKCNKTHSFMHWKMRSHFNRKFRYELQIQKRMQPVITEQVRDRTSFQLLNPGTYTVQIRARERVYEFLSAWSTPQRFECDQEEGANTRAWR
Described as above.

Assay [14] concerns the target T1, cyno CD123 ECD displayed on …. The description is as above.

A value given as a limit tells only on which side of the number the result lay.

B1: I3RB217 (antibody, human IgG4 S228P, kappa, F234A L235A, V domains shown)
VH: EVQLVQSGAEVKKPGESLKISCKGSGYSFTSYWISWVRQMPGKGLEWMGIIDPSDSDTRYSPSFQGQVTISADKSISTAYLQWSSLKASDTAMYYCARGDGSTDLDYWGQGTLVTVSS
VL: EIVLTQSPGTLSLSPGERATLSCRASQSVSSSYLAWYQQKPGQAPRLLIYGASSRATGIPDRFSGSGSGTDFTLTISRLEPEDFAVYYCQQDYGFPWTFGQGTKVEIKR
As to B1, the “IC50 (read off the curve): IL-3-induced CD123/CD131 heteromerization (RLU)” value in [1] was about 0.1 µg/mL.

B2: I3RB119 (Fab, V domains shown)
VH: EVQLVQSGAEVKKPGESLKISCKGSGYSFTSYWISWVRQMPGKGLEWMGIIDPSDSDTRYSPSFQGQVTISADKSISTAYLQWSSLKASDTAMYYCARGDGSTDLDYWGQGTLVTVSS
VL: EIVLTQSPGTLSLSPGERATLSCRASQSVSSSYLAWYQQKPGQAPRLLIYGASSRATGIPDRFSGSGSGTDFTLTISRLEPEDFAVYYCQQDYGFPWTFGQGTKVEIK
notes: also called Fab I3RB119; I3RB18 Fab
As for B2, the “fold weaker than to human CD123 SP1” value in assay [2] is over 10 fold. The Kd in assay [3] was 1.8 nM; in [4], 0.4 nM; in assay [5], 0.293 nM; in [6], 0.367 nM; in assay [7], over 15 nM; in [8] it was over 11.9 nM. The koff in [3] was found to be 0.000891 s⁻¹. For the same molecule, the kon in assay [3] is 493000 M⁻¹ s⁻¹.

B3: I3RB121 (Fab, V domains shown)
VH: QVQLVQSGAEVKKPGSSVKVSCKASGGTFSSYAISWVRQAPGQGLEWMGGIIPIFGTANYAQKFQGRVTITADESTSTAYMELSSLRSEDTAVYYCARHLFWDAGPLDYWGQGTLVTVSS
VL: DIQMTQSPSSLSASVGDRVTITCRASQSISSYLNWYQQKPGKAPKLLIYAASSLQSGVPSRFSGSGSGTDFTLTISSLQPEDFATYYCQQYFSPPYTFGQGTKVEIK
notes: also called Fab of I3RB35
As to B3, in assay [3], the Kd was 6.3 nM, the koff stood at 0.00245 s⁻¹ and the kon is 387000 M⁻¹ s⁻¹. Further, in assay [9], the Kd is 1.2 nM.

B4: I3RB21 (antibody, IgG1, V domains shown)
VH: QVQLVQSGAEVKKPGSSVKVSCKASGGTFSSYAISWVRQAPGQGLEWMGGIIPIFGTANYAQKFQGRVTITADESTSTAYMELSSLRSEDTAVYYCAREGWWGQGKFDYWGQGTLVTVSS
VL: EIVLTQSPATLSLSPGERATLSCRASQSVANFLAWYQQKPGQAPRLLIYAASNRATGIPARFSGSGSGTDFTLTISSLEPEDFAVYYCQQYFHWPYTFGQGTKVEIK
notes: IgG1
For B4, in [10], the Kd came out at 2.19 nM, the koff stood at 0.00114 s⁻¹ and the kon came to 521000 M⁻¹ s⁻¹. Also, the binding result in assay [11] is on record as “binds”.

B5: I3RB25 (antibody, V domains shown)
VH: QVQLVQSGAEVKKPGSSVKVSCKASGGTFSSYGISWVRQAPGQGLEWMGGISAIFGNANYAQKFQGRVTITADESTSTAYMELSSLRSEDTAVYYCARRFKWWESYFDYWGQGTLVTVSS
VL: not shown
For the molecule B5, the binding result in assay [12], in [13] and in assay [14] was “no binding (tested: 10 µg/mL)” in each case.

The values are drawn from US20160068605A1 (Janssen / Centocor, published 2016).
